This is an account of results in patent US7718774 (MacroGenics, dated 2010).

In the experiment the target is T1, His-tagged 2Ig-B7H3 (R&D Systems) (UniProt Q5ZPR3-2 29-245, limits assumed).
T1 construct: the 2Ig form is an isoform of it; also called 2Ig-B7H3(His); xHis 2Ig (when captured by mouse anti-poly His antibody); not shown: His tag
T1 sequence (looked up): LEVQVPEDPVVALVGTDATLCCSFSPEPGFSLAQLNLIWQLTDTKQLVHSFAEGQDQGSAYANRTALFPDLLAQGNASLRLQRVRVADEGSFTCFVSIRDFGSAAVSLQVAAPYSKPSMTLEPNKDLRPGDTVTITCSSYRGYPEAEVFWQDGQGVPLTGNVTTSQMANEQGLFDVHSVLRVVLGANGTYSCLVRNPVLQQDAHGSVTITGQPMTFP
In words: ELISA, 5 µg/ml 2Ig-B7H3(His) captured by mouse anti-poly His antibody, streptavidin-HRP. The procedure: To further investigate mu-anti-TES binding to 4Ig-B7H3, ELISA crosslinking experiments with a His-tagged 2Ig-B7H3 (R&D Systems) were performed. 5 µg/ml of a capture antibody, mouse anti-poly His antibody, was coated on a 96-well plate as a control, a no coat well (naked well) was also used. The wells with the capture antibody were then blocked with HBSS+1% BSA. 5 µg/ml of 2Ig-B7H3(His) or 4Ig-B7H3(His) was introduced into naked wells or capture antibody-coated wells. As a control, 5 µg/ml of 2Ig-B7H3(Fc) was introduced into naked wells. The plate was then blocked again with HBSS+1% BSA. Then […] of biotinylated mu-anti-TES7, BLA8, PA20 or STO5 (another anti-B7H3 antibody that only recognizes the 4Ig form of B7H3) was introduced into the plate. The bound biotinylated antibodies were then detected with streptavidin-HRP using standard protocols.
For orientation: ELISA stands for enzyme-linked immunosorbent assay.

B1: mu-anti-TES7 (antibody, V domains shown)
VH: QVQLQQSGPELVKPGTSVRISCKASGYTFTSYYIHWVKQRPGQGLEWIGWIYPGNVNTKYNENFKGKATLTADKSSSTAYMQLSSLTSEDSAVYFCARGGYFFDQWGQGTTLTVSS
VL: DVQITQSPSYLAASPGETITVNCRASESISKYLAWYQEKPGKTNKLLIYSGSTLQSGIPSRFSGSGSGSDFTLTISSLEPEDFAMYYCHQHNEFPLTFGAGTKLELK
notes: Mouse monoclonal IgG purified from hybridoma supernatant on protein G; also called mouse anti-huTES7 antibody; murine anti-TES7 antibody
Take B1: the binding result is given as “no binding”.
